{
  "source": "paper PMC2921846",
  "biological_target": "PKCα-YFP (mouse) (UniProt P20444)",
  "experiment": "FRET or BRET",
  "data": [
    {"substance": "Erk-CFP (from UniProt P63085 1-358) (natural protein)", "values": [
      {"measurement": "FRET efficiency", "result": 7.19, "unit": "%"}
    ]}
  ]
}
